Laboratory results as given in publication PMC8131599.

Columns and labels:
[1] = target: EV-D68 mature virion, strain US/MO/14-18947 (clade B) (enterovirus D68 strain US/MO/14-18947)
[2] = target: EV-D68 mature virion, strain US/MO/14-18947 (clade B) (enterovirus D68 strain US/MO/14-18947); experiment: BLI

Work on “anti-EV-D68 MAb 8F12 (murine, IgG2b) (antibody)” yielded an IC50 of neutralization of EV-D68 strain 18947 on RD cells (cell viability, CellTiter-Glo) [1] of 4 ng/mL and a neutralization concentration (lowest antibody concentration that fully inhibits cytopathic effect) against strain 18947 [1] of 0.06 µg/mL.
“anti-EV-D68 MAb 8F12 (murine, IgG2b) (from UniProt P01867)” showed a Kd [2] of 0.92 nM and a koff [2] of 0.00035 s⁻¹.
